Measurements from US20220017622A1 (Pfizer, published 2022).
Values joined by “and” are separate entries in the source; they are usually repeats but may differ in a detail not shown here. Equal entries are not always repeated.

T1: human B7-H4 extracellular domain (human, UniProt Q7Z7D3 29-258)
T1 construct: For SPR it says only human B7-H4 ECD; also called Hu B7-H4 ECD; huB7-H4 ECD
T1 sequence: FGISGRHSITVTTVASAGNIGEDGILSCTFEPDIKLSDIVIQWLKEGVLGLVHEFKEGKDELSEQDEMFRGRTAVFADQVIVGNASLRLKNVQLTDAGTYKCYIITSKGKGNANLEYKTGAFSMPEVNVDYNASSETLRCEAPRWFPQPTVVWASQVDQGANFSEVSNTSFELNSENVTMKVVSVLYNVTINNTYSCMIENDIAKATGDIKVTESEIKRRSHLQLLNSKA


target: T1, human B7-H4 extracellular domain; experiment: SPR Biacore 8K 25 C; mAb captured on anti-human Fc, huB7-H4 ECD analyte, 1:1 fit;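 note: antibodies tested as IgG1, running buffer HBS-EP+ at pH 7.4, rate constants and affinity from a 1:1 Langmuir model fit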
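Throughout, for IC50: tested antibody premixed 1:1 with biotinylated parental antibody, 2 h at room temperature on coated ECD, bound biotin detected via streptavidin-HRP, absorbance read at 450 nm.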

Kd | koff | kon | Binder
0.68 nM | 0.000389 s⁻¹ | 568000 M⁻¹ s⁻¹ | B7-H4 antibody 0059 (antibody, human IgG1, kappa, V domains shown, also called 47A1) VH: EVQLLESGGGLVQPGGSLRLSCAASGFTFSSYALSWVRQAPGKGLEWVSTINVGGVDTNYAGSVKGRFTISRDNPKNTLCLQMNSLRAEDTAVYHCAKARITMVRGVIIPLFDYWGQGTLVTVAS VL: not shown
1.9 nM | 0.000725 s⁻¹ | 382000 M⁻¹ s⁻¹ | B7-H4 antibody 0055 (antibody, human IgG1, kappa, V domains shown, also called 32F3) VH: QVQLQESGPGLVKPSETLSLTCTVSGGSISSSSYYWGWIRQPPGKGLEWIGTIYFSGNTYYNPSLKSRVTISVDTSKSQLSLKLNSVTAADTAVYYCARLRVTMVRGVIIGVFDYWGQGTLVTVSS VL: not shown
1.35 nM | 0.00075 s⁻¹ | 558000 M⁻¹ s⁻¹ | B7-H4 antibody 0060 (antibody, human IgG1, kappa, V domains shown, also called 42E2) VH: QVQLQESGPGLVKPSETLSLTCTVSTGSISSSSYYWGWIRQPPGKGLEWIGTIYFSGSTYYNPSLKSRVTISVDTSKNQFSLKLTSVTAADTAVYYCARLRVTMVRGVIIGVFDFWGQGTLVTVSS VL: not shown
0.83 nM | 0.000619 s⁻¹ | 745000 M⁻¹ s⁻¹ | B7-H4 antibody 0048 (antibody, human IgG1, kappa, V domains shown, also called 11F12) VH: EVQLLESGGGLVQPGGSLRLSCAASGFTFSSYAMKWVRQAPGKGLEWVSTTSGSGGTTYYADSVKGRFTISRDNSKNTLYLQMNSLRAEDTAVYYCAKAGWAAAFDYWGQGTLVTVSS VL: DIQLTQFPSTLSASVGDRITITCRASQSISDWLAWYQQKPGKAPKLLIYKASSLESGVPSRFSGSGSGTEFTLTISSLQPDDFATYYCQQCNSYWTFGQGTKVEIKR
7.92 nM | 0.000508 s⁻¹ | 64100 M⁻¹ s⁻¹ | B7-H4 antibody 0057 (antibody, human IgG1, kappa, V domains shown, also called 34A3) VH: EVQLLESGGGLVQPGGSLRLSCAASGFTFSSYAMSWVRQAPGKGLEWVSAISGRGGSTYYTDSVKGRFTISRDNSRNTLYLQMNILRAEDTAVYYCARDLQWFGESTLFDYWGQGTLVTVSS VL: DIQLTQSPSTLSASVGDRVTITCRASQSISAWLAWFQQKPGKAPKLLIYKASSLESGVPSRFSGSGSGTEFTLTISSLQPDDFATYYCQQYNSYSRSFGQGTKLEIKR
0.57 nM | 0.000464 s⁻¹ | 814000 M⁻¹ s⁻¹ | B7-H4 antibody 0051 (antibody, human IgG1, kappa, V domains shown, also called 27C12) VH: EVQLLESGGGLVQPGGSLRLSCAASGFTFSSYAMSWVRQAPGKGLEWVSSISGNGGSTYYADSVKGRFTISRDNSKNTLSLQMNSLRAEDTAVYYCAKVGWRTGDYWGQGTLVTVSS VL: DIQLTQSPSTLSASVGDRVTITCRASQSISSWLAWYQQKAGKAPKLLIYKASDLESGVPSRFSGSGSGIEFTLTISSLQPDDFATYYCQQYNSYSWTFGQGTKVEIKR
0.62 nM | 0.000353 s⁻¹ | 574000 M⁻¹ s⁻¹ | B7-H4 antibody 0056 (antibody, human IgG1, kappa, V domains shown, also called 33G4) VH: EVQLLESGGGLVQPGGSLRLSCAASGFTFSTYAMNWVRQAPGKGLAWVSAISGSGGSTYYADSVKGRFTISRDDSKNTLYLQMNSLRAEDTAVYYCAKVDVVARYYGMDVWGQGTTVTVSS VL: DIQMTQSPSTLSASVGDRVTITCRASQSISGWLAWYQQKPGKAPKLLIYEASSLESGVPSRFSGSGSGTEFTLTISSLQPDDFATYYCQQYKSYSWTFGQGTKVEIKR
1.85 nM | 0.000414 s⁻¹ | 225000 M⁻¹ s⁻¹ | B7-H4 antibody 0049 (antibody, human IgG1, kappa, V domains shown, also called 13F4) VH: EVQLLESGGGLVQPGGSLRLSCAASGFTFSSYAMSWVRQAPGKGLEWVSAISGSGGSTYYADSVKGRFTISRDNSKNTLFLHMNSLRAEDTAVYYCARDIQWFGESVFDYWGQGTLVTVSS VL: DIQMTQSPSTLSASVGDRVTITCRASQSISSWLAWYQQKPGKAPKLLIYKASSLESGVPSRFSGNGSGTEFTLTISSLQPDDLATYYCQYYNSYSRTFGQGTKVEIKR
7.83 nM | 0.0011 s⁻¹ | 140000 M⁻¹ s⁻¹ | B7-H4 antibody 0052 (antibody, human IgG1, kappa, V domains shown, also called 28D10) VH: QVQLQQWGAGLLKPSETLSLTCAVYGGSFSGYYWNWIRQPPGKGLEWIGEINHSGSTKYNPSLKSRVTISGDTSKNQFSLKLNSVTAADTAVYYCVRGLYNWNVDSWGQGTLVTVSS VL: DIQMTQSPSSLSASVGDRVTITCRASQGIRNDLGWYQQKPGKAPKRLIYVASSLQSGVPSRFSGSGSGTEFTLTISSLQPEDFATYYCLQHNSYPYTFGQGTKLEIKR
0.74 nM | 0.000321 s⁻¹ | 434000 M⁻¹ s⁻¹ | B7-H4 antibody 0053 (antibody, human IgG1, kappa, V domains shown, also called 29G6) VH: QVQLQQWGAGLLKPSETLSLTCAVYGGPFSGYFWSWIRQPPGKGLEWIGEINHSGNTNYNPSLKSRVTISVDTSKNQFSLKLSSVTAADTAVYYCARAGGDYGFYYYYGMDVWGQGTTVTVSS VL: DIQLTQSPSTLSASVGDRVTITCRASQSISSWLAWYQQKPGKAPELLVYKASRLESGVPSRFSGSGSGTEFTLTISSLQPDDFATYYCQQYNSYFGGGTKVEIKR
0.84 nM | 0.000572 s⁻¹ | 678000 M⁻¹ s⁻¹ | B7-H4 antibody 0061 (antibody, human IgG1, kappa, V domains shown, also called 46E10) VH: QVQLQQWGAGLLKPSETLSLTCAVYGGSFSGYFWSWIRQPPGKGLEWIGEFNHSGGTNSNPSLKSRVTMSVDTSKNQFSLKLSSVTAADTAVYFCARAGGDYGFYYYYGLDVWGQGTTVTVSS VL: DIQLTQSPSTLSASVGDRVTITCRASQSISSWLAWYQQKPGKAPELLVYKASRLESGVPSRFSGSGSGTEFTLTISSLQPDDFATYYCQQYNSYFGGGTKVEIKR

target: T1, human B7-H4 extracellular domain; experiment: competition ELISA on coated huB7-H4 ECD; competitor biotinylated 0052 (by series, not given)

IC50 | Binder
1.4 nM | B7-H4 antibody 1080 (antibody, human IgG1, kappa, V domains shown) VH: EVQLVESGGGLVQPGGSLRLSCAVSGGSFSGYYWNWIRQPPGKGLEWIGEINHSGSATYNPSLKSRVTISVDTAKNSLYLQMNSLRAEDTAVYYCARGLYNWNVDHWGQGTLVTVSS VL: DIQMTQSPSSLSASVGDRVTITCRASQGIRNDLGWYQQKPGKAPKRLIYAASSLQSGVPSRFSGSGSGTDFTLTISSLQPEDFATYYCLQHNAYPRTFGGGTKVEIKR
13.6 nM and 17.8 nM | B7-H4 antibody 0380 (antibody, human IgG1, kappa, V domains shown) VH: EVQLVESGGGLVQPGGSLRLSCAVSGGSFSGYYWNWVRQAPGKGLEWIGEINHSGSATYNPSLKSRFTISVDTAKNSFYLQMNSLRAEDTAVYYCARELYNWNVDHWGQGTLVTVSS VL: DIQMTQSPSSLSASVGDRVTITCRASQGIRNDLGWYQQKPGKAPKRLIYAASSLQSGVPSRFSGSGSGTEFTLTISSLQPEDFATYYCLQHNSYPRTFGGGTKVEIKR
13.5 nM and 17.1 nM | B7-H4 antibody 0362 (antibody, human IgG1, kappa, V domains shown) VH: EVQLVESGGGLVQPGGSLRLSCAVSGGSFSGYYWNWVRQAPGKGLEWIGEIDHQGSTKYNPSLKSRFTISVDTAKNSFYLQMNSLRAEDTAVYYCARGLYNWNVDHWGQGTLVTVSS VL: DIQMTQSPSSLSASVGDRVTITCRASQGIRNDLGWYQQKPGKAPKRLIYAASSLQSGVPSRFSGSGSGTEFTLTISSLQPEDFATYYCLQHNSYPRTFGGGTKVEIKR
15.8 nM and 12.9 nM | B7-H4 antibody 0352 (antibody, human IgG1, kappa, V domains shown) VH: EVQLVESGGGLVQPGGSLRLSCAVSGGSFSGYYWNWIRQPPGKGLEWIGEINHSGSATYNPSLKSRFTISVDTAKNSFYLQMNSLRAEDTAVYYCARGLYNWNVDHWGQGTLVTVSS VL: DIQMTQSPSSLSASVGDRVTITCRASQGIRNDLGWYQQKPGKAPKRLIYAASSLQSGVPSRFSGSGSGTEFTLTISSLQPEDFATYYCLQHNSYPRTFGGGTKVEIKR
8.49 nM and 8.3 nM | B7-H4 antibody 0368 (antibody, human IgG1, kappa, V domains shown) VH: EVQLVESGGGLVQPGGSLRLSCAASGGSFSGYYWNWVRQAPGKGLEWVAEINHSGSATYNPSLKSRFTISRDTAKNSLYLQMNSLRAEDTAVYYCARGLYNWNVDHWGQGTLVTVSS VL: DIQMTQSPSSLSASVGDRVTITCRASQGIRNDLGWYQQKPGKAPKRLIYAASSLQSGVPSRFSGSGSGTEFTLTISSLQPEDFATYYCLQHNSYPRTFGGGTKVEIKR
30.1 nM | B7-H4 antibody 0540 (antibody, human IgG1, kappa, V domains shown) VH: EVQLVESGGGLVQPGGSLRLSCAVSGGSFSGYYWNWIRQPPGKGLEWIGEIDHQGSTKYNPSLKSRVTISVDTAKNSLYLQMNSLRAEDTAVYYCARELYNWNVDHWGQGTLVTVSS VL: DIQMTQSPSSLSASVGDRVTITCRASQGIRNDLGWYQQKPGKAPKRLIYAASSLQSGVPSRFSGSGSGTDFTLTISSLQPEDFATYYCLQHNAYPRTFGGGTKVEIKR
12.4 nM | B7-H4 antibody 0376 (antibody, human IgG1, kappa, V domains shown) VH: EVQLVESGGGLVQPGGSLRLSCAVSGGSFSGYYWNWVRQAPGKGLEWIGEINHSGSATYVDSVKGRFTISRDTAKNSFYLQMNSLRAEDTAVYYCARGLYNWNVDHWGQGTLVTVSS VL: DIQMTQSPSSLSASVGDRVTITCRASQGIRNDLGWYQQKPGKAPKRLIYAASSLQSGVPSRFSGSGSGTEFTLTISSLQPEDFATYYCLQHNSYPRTFGGGTKVEIKR
17.6 nM | B7-H4 antibody 0350 (antibody, human IgG1, kappa, V domains shown) VH: EVQLVESGGGLVQPGGSLRLSCAVSGGSFSGYYWSWVRQPPGKGLEWIGEINHSGSATYNPSLKSRFTISVDTAKNSFYLQMNSLRAEDTAVYYCARGLYNWNVDHWGQGTLVTVSS VL: DIQMTQSPSSLSASVGDRVTITCRASQGIRNDLGWYQQKPGKAPKRLIYAASSLQSGVPSRFSGSGSGTEFTLTISSLQPEDFATYYCLQHNSYPRTFGGGTKVEIKR
21.9 nM | B7-H4 antibody 0538 (antibody, human IgG1, kappa, V domains shown) VH: EVQLVESGGGLVQPGGSLRLSCAASGGSFSGYYWNWIRQPPGKGLEWIGEIDHQGSTKYNPSLKSRVTISVDTAKNSLYLQMNSLRAEDTAVYYCARGLYNWNVDHWGQGTLVTVSS VL: DIQMTQSPSSLSASVGDRVTITCRASQGIRNDLGWYQQKPGKAPKRLIYAASSLQSGVPSRFSGSGSGTDFTLTISSLQPEDFATYYCLQHNAYPRTFGGGTKVEIKR
9.13 nM and 10.8 nM | B7-H4 antibody 0364 (antibody, human IgG1, kappa, V domains shown) VH: EVQLVESGGGLVQPGGSLRLSCAVSGGSFSGYYWNWVRQAPGKGLEWIGEINHSGSATYNPSLKSRVTISVDTAKNSFYLQMNSLRAEDTAVYYCARGLYNWNVDHWGQGTLVTVSS VL: DIQMTQSPSSLSASVGDRVTITCRASQGIRNDLGWYQQKPGKAPKRLIYAASSLQSGVPSRFSGSGSGTEFTLTISSLQPEDFATYYCLQHNSYPRTFGGGTKVEIKR
